Reference: the DeepSol protein solubility set

Assay: soluble on expression in E. coli; label from the status in PepcDB or PDB records

Row | Sequence | soluble on expression in E. coli
1 | MSLKTKLIVVLGPTAVGKTALGIKLAQQFHGEIISGDSQQVYRKLDIGTAKATAAEQAAVPHHLIDVREVDENYSAFDFVQEATKEIANICARGYLPIIVGGTGLYLQSLLEGYHLGGQVDHEAVLAYRRELETLSDTELSQLVETKQIVMTEPNRRRLMRSLELHKFSQGVQNQGSPYDVLLIGLNDNRQDLYERINARVDKMMAAGLLDEAKWLYDNYPHAQATRGIGYKELFPYFAGDIGLEEAVEKIKQNTRRFAKRQLTWFKNRMAVSFYSVSDSDYKGKINQAVVDFLRNEGHHHHHH | soluble
2 | MAGLGHPAAFGRATHAVVRALPESLGQHALRSAKGEEVDVARAERQHQLYVGVLGSKLGLQVVELPADESLPDCVFVEDVAVVCEETALITRPGAPSRRKEVDMMKEALEKLQLNIVEMKDENATLDGGDVLFTGREFFVGLSKRTNQRGAEILADTFKDYAVSTVPVADGLHLKSFCSMAGPNLIAIGSSESAQKALKIMQQMSDHRYDKLTVPDDIAANCIYLNIPNKGHVLLHRTPEEYPESAKVYEKLKDHMLIPVSMSELEKVDGLLTCCSVLINKKVDS | not soluble
3 | MSSRIEQIIEEIEEYIDKDCKFQPLSSTKIIVNKEHLDELLRELRMKTPDEIKRYQKIISNRDAILADAKAKADAMIEEAQVQTTELVSEHEIMQQAYAQANEIVTQATAQAQEIIDNATMDANEIRMGAIQYTDDLLANAESIIGHTLDSYTTKYDGLINSLQECYDVVRTNRAELESPTPEEGQEFSGEA | not soluble
4 | MEEETIKVENLDDSITIDRNPVPLAFCARPTLPAKIGMKTEDGIVDQLLDLVDPITVVNPTEIRQAPSLKSFGCDTESEFEFSGDDSDFENINDLRAGALDSDEEFDRLVKFSAKIIEKTHKSEYPDENGKKQRKPKKSQKTRNVHEYDDMPPLENLSIECKGQLLEFGFVSKVVDCQVVIISTCTEVLDFDSFLFDQKGNALGQIYDIFGQVKNPQYVIRFNSCEEASMIPIDMKVYYAPTEEQFSKTPFKGLNLAAANRDAIKSLNRRIDHQEAVAKAGETMAQVGIGSDVEFSDDEAEKEFKRTTYTQPASQMSRGFDSNRGRKRDRRGGQKVRFSAQNPPARSDNLGPIPQQPSAPPPPARPAQSTESNPYAEFGCHSGFNGRFGI | not soluble
5 | MGSSPAPFADIGKKAKDLLNKDYIFDHKFTLTMLSATGTEFVATGLKKDDFFFGDISTLYKGQNTIVDLKIDSHSSVSTKVTLKNLLPSAKAVISFKIPDHKSGKLDVQYVHPHATLNSSIGLNPTPLLDLSATIGSQNVCLGGEVSFDTASSSLTKYNAGIGFNNQGVSAALILEDKGESLRATYVHTVNPTTSFGAELIRRFSNYNNSFTVGSSHSVDQFTVVKTRFSNSGKAGMVVQREWRPKSHITFSAEYDSKAVTSSPKLGLALALKP | soluble
6 | MGSDKIHHHHHHMTTDHPSAYCFFQDLAPRPPLDAAFDRDYLLYAIRGALRVSVAGESWLLPPSFAAWLPANTPISVDIDKPVTTCSVLARPGLCTGLPEKACVFQMSPMARQMIHYCKDWGPDAAHPAQAEGFFLALLHVCADLAVKSVDVKRPTATDPVLRKAIDITEAHLAQAITANEIARKVNLSERSMQRHFQMDVGMTWSQTLTQLRMIHAVALLAEGKLSIIQIAGYTGFQSLSAFNRAFRTFAATTPTKFRKALLD | not soluble
7 | SNAMNPIEFWFDFSSGYAFFAAQRIEALAAELGRTVLWRPYMLGAAFSVTGARGLSSTPLKRDYAQRDWARIARQRGLTFRPPADHPHVALAATRAFYWIEAQSPDAATAFAQRVFDLYFSDRLDTASPEAVSRLGPEVGLEPEALLAGIADPALKETVRKIGEDAVARGIFGSPFFLVDDEPFWGWDRMEMMAEWIRTGGW | soluble
8 | MGSDKIHHHHHHMDSNIDVEILSILSEASAPVGAKIIADSLKDRGYDIGERAVRYHLKVLDENSLTKKLGYSGREITEKGIEELEKANISFRIGSVFSQVIEKLYLSDFPSKVLINTAKFEGDYKTIKEMVLRSFEAGYSVGDYLNIKKKGNTVSVETLCSITFDNFLLKNGIIPTPEYGGIVKFEDYEPVNFEGVIDFKSSSIDPLVAFIMQGKTDVIGVIENGEGLVPANFRVIPKSSEKQFETILKKDMLNSVLAYGTENVLGMNLNPEQIGVVLVGGLTPLCVPHESGYTADISAATQLKDISSMEKKTKGFLEAKKKKGKFKVTPVLSKMLSKMQTINYDIEDKKGNVVVNTAKIPIEYKEEAINALKDSYENKLAISDRLKVECDDKFLNAYTICSLTVDGVFLKNKIPVIPYYGGILEVKADKKRFIEAIDYEGTSLDPHEVFFNKADGKNYILAGIRKVPMSASEKLIELNEKLGWNSIIEIGRPNNDICGVRVEKCMFGITTIGGTNPFANIRKNNIPVEMKTLHKSIDYSELTHYDDI | not soluble
9 | MEQLGSEPETYQIMKTIEKSIIENDNVDLEQYLLFWEHVCNVMCSWGTIFSFVVKDVTAKLEKLTQMRSSDPDSYRTIIGMATKESENGTIRNQKPNRSGTGHLMVLNRALEFVIDLLDGVFTSNDENVSTIARSSYDKHLSQLHSWPIRTAVAAALYTLPRKPEFLCRLRGDMPEDDDNQFHDIFNRDGRDIVRRVNKLVENFELTDYNPSA | not soluble
10 | MSLELTTQDIQLQQHFANKQAAIQGLAHALTAKGLVAEGYAQGMLNREAQHSTYLGNGIAIPHGTTDTRELVKQTGVTAMHFPQGLDWGDGNLVYVAIGIAAKSDEHLGILKQLTRVLSADGVEQALQQAKTAQQIIAIIKGEAQLTADFDASLIQLQFPASDMVQMSAVAGGLLKNTGCAENEFVADLVTKAPTHLGRGLWLVASDRAVKRTGMSIVTTANHCEYEQQAVKALIAFSVCNDVHQPLLNTITQCVFEQKQDQLLQADVQQLLNLFSGNAEQTIAQRTIAVGTITEETIAAETVAEPDSARAHTATFRIKNSHGLHARPGAMLVAEAKKFESNIRVSNLDGDGQVVNAKSLMKVIALGVKHNHQLQFTAEGPDAEAALQALGVAINAGLGEGHHHHHH | soluble
11 | MSMEDPFFVVKGEVQKAVNTAQGLFQRWTELLQGPSAATREEIDWTTNELRNNLRSIEWDLEDLDETISIVEANPRKFNLDATELSIRKAFITSTRQIVRDMKDQMSASS | soluble
12 | MGSDKIHHHHHHMRQTFIARKISFISLIHFRDEYMSPQNNHLQRPPAAVLYADELAKLKQNDNAPCPPGWQLSLPAARAFILGDSAQNISRKVVISPSAVERMLVTLATGRGLMLVGEPGTAKSLLSELLATSISGDAGLTIQGGASTTEDQIKYGWNYALLINHGPSTEALVPAPLYQGMRDGKIVRFEEITRTPLEVQDCLLGMLSDRVMTVPELTGEASQLYAREGFNIIATANTRDRGVNEMSAALKRRFDFETVFPIMDFAQELELVASASARLLAHSGIPHKVPDAVLELLVRTFRDLRANGEKKTSMDTLTAIMSTAEAVNVAHAVGVRAWFLANRAGEPADLVDCIAGTIVKDNEEDRARLRRYFEQRVATHKEAHWQAYYQARHRLP | not soluble
13 | MLLDVQHGQFGFIKGGIIAVIWFSLSRTINCGQLNLECFEFWLPTSQLLVLDVCLFDAFALEHHHHHH | not soluble
14 | MSLGRFKTLLNQEDYLILHGALGTELEFLGYDVSGKLWSAKYLLENPSIIQTIHETYLRSGSDIVTTSSYQASYQGLCDYGLSQEEAEKMIALTVSLAKNAREKVWQELSEKEKQVRPYPLISGDVGPYAAYLADGSEYTGNYGQLDKEVLKDFHRSRIKILVDEGSDLLALETIPNFLEAQALVELLQEEFPSVEAYMSFTAQNGTTISDGTAIEEVAELIDKASQILALGINCSSPSVYSSLLKKIADITDKPLVTYPNSGEVYDGQHQMWTQSADISHTLLENTKIWHTFGAKVVGGCCRTRPNDIESLSRGLREEGHHHHHH | soluble
15 | MVVVRLPKEIEERLTALARKTGRSKSYYVRQALLEYLDDLEDYYLAVERLEERLPGIPLDEVERRLGLSD | soluble
16 | MEKYLPILRNSPFFKGLSDNEILSILHCVNATVISKERASYIFRAGDSTEVMGLVVSGCVLVMQEDLWGHRNILSKCHAGDFFGEPYAASLGAVLNISVAADEDCEIIFLNVQRLLVTCQTACEHHQKLIRNLVSVLANKILILNDKITHVGKRTTRDKLLSYLSAESIRRSSLSFDIPFDRQQLADYLCIDRAAMSTEISKLQKEGFIKTNRNHFELIACNETDLQADK | not soluble
17 | MASLWRAVIGGQNNNSEDYGGVEFWSNPERTGWLTKQGEYIKTWRRRWFVLKQGKLFWFKDSDVTRVSRPRGVVPVESCLTAKGAEDVLNKQNAFELSTRNETMYFIADSEKEKEDWINSIGRSIVQNSRSVTDSEIVDYDNKH | soluble
18 | MINIHRFVQNRFLRTRHAHPFGIVLDIDGVLFRGRNMLPRVKEAFSLITDKKGNFVVPTVFLTNGTNSTEKNKAAQLSEQLGFRVPADNVLMSHSPLRMFTDLHDKQVLVVGQKNARAIAKGIIFFRVGFKKVTTIDHLVKWFPHLDCTDFSRKLVDPKETEAARKRFRPIEAIVMLGEPLKWETSLQLMLDCVLTYGKMDTMVFPLIAGGRRPDHIPIVACNVDLVWMADVASQLPRIGHGTFIHILDSLYEKLTGQHLQFRATLGKPTEVSYLHAAHRIQRQAKAMKLEDVKYVYVIGDNPMSDVLGARLFDRYLRHGGVGRFDHLDLEAFDVNDGEKPRVRTRNVVERCISILVETGVHQDHVHINGMVKPISALIDNLSKGEQLKLQLPDFVEYDLHAAIRTILRRECYR | not soluble
19 | MPMNTTGMSFSSFGISCHRENSFRNSFRGKNDEVVKCSIGERTISFSVRKFSGNILETVRRQSTKDIDEWIKDERIVYPSRVINQEIDNYCFQKNAKISTEERQRVFFLVSQENQLTLDVKAAQSSINHVIMGSASFGKKMDALCDGMSRDVKNRTSDTIANLLADKFYQKHIDSDIDIVKLRNDIPDYLMRAIQG | not soluble
20 | MGHHHHHHSHMAAEPVEDNCINFVAMKFIDNTLYFIAEDDENLESDYFGKLESKLSVIRNLNNQVLFIDQGNRPLFEDMTDSDCRDNAPRTIFIISMYKDSQPRGMAVTISVKCEKISTLSCENKIISFKEVNPPDNIKDTKSDIIFFQRSVPGHDNKMQFESSSYEGYFLTCEKERDLFKLILKKEDELGDRSIMFTVQNED | soluble
21 | MKIAKFTRINAHQVQNCNNEKIAHERKMEKVFEFLAEDKKTFEASNSFERTLIFCKHDKSAMAALLTLYDSKTIFGTFSEYLITNDKTVLERERVQVNNGEKMLAICNMDFMDDFQLGLAKHYIFLDFPLKIIGIKKMLDRLNTMAQQSEQVIDIDFLTTNMDARIYQEALNMEMTMRGSQVPKWLTELVNGSSELPEDPDVIFVRTCKPDLEPLTAKPAKLPSPRQPESKPSNEASSSQLEPTSASQPPSRVDQILKSRSGLPTKDADSSSEVAPRKRKPKSPAFDIYNMKRQPDGTFLIPSHVMGFCNEDLSEDDEEPDPEYDSEEEYNWMYKLDVW | not soluble
22 | MGSDKIHHHHHHMAIITRIEVQKRNNERYNIFIHQNGQDVYAFSVDEQVLIKQGLRKGLDIDAEQMKQILYEDEVQKTFNLALHYLSYRMRSVHEVRTYLKKKDREEPIIEHVLHRLTEQRLLDDHAFAEAFIQTKRATTSKGPLKLKQELAEKGVSEKTIEGALTTFSYEEQVEQVKAWLEKQKGRTFKGSSLAWKQKLSRQLLAKGYTSPVIEEAFADVPIKQEEEEEWEALKAFGEKAMRKYAGKKTGWELQQKVKQALYRKGFSLEMIERYLND | not soluble
23 | PVAMKEAQKRLGDKVEYTTDMYDAVRGAEALFHVTEWKEFRMPDWSALSQTMAASLVIDGRNVYELPADSDFTLLNIGNSAIESASSK | not soluble
24 | NNSQFFMGIPRLKFPADAPSRSTLKLEEAFHVFIPRDEWDERLAPGMWGVDLGACPGGWTYQLVKRSMFVHCVDNGMMADSLMETGQIKHHMVDGFKFEPDRKNVTWIVCDMVEKPARVAHLMGQWLLKGWAKEAIFNLKLPMKGRYDEVLQDLENLKMFLIENKVKFKLQAKHLYHDREEITIHIQCLSNISPH | not soluble
